Experiment [1] has as its target HA-tagged human surfeit locus protein 4 (HA-Surf4) (human) (UniProt O15260). Nature of the experiment: co-sedimentation; crude microsomes from Surf4^KO HEK293A cells transfected with HA-Surf4, permeabilised with CEB (digitonin) 30 min on ice; 400 nM GH (conditioned media in KHMC buffer) 1 hr on ice; pelleted at >100,000 x g; bound GH released with … peptide and read by hGH ELISA; controls: microsomes without CEB and microsomes of untransfected Surf4^KO cells.

The target is the same in experiment [2]. Nature of the experiment: binding to immuno-isolated microsomes on magnetic beads, bound GH read by ELISA; titration; microsomes of HA-Surf4-transfected HEK293A cells held on Protein G-Dynabeads with anti-Surf4 carboxy-terminal antibody, CEB-permeabilised; 0, 100, 200, 300, 400 or 800 nM GH for 1 hr at RT in KHMC buffer; GH eluted with … peptide; estimate of the binding constant from half-maximal ….

Chain of UniProt O15260 (O15260 whole entry): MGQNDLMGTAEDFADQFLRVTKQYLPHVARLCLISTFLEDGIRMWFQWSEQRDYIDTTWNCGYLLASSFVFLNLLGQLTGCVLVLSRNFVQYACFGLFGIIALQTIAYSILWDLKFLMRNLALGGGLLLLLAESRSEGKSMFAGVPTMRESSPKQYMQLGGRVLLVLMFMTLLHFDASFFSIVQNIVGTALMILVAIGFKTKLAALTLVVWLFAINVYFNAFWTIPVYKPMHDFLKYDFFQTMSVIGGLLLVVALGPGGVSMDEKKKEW

Regarding “APV-GH (human growth hormone-1 starting with alanine-proline-valine) (from UniProt P01241 27-217) (natural protein)”, the fold increase in binding after digitonin permeabilisation of the microsomes in experiment [1] was greater than 5 fold. Also, the Kd in experiment [2] was 200 to 300 nM.

Source of the values: publication PMC6097701.
